Measured values from US12123876B2, “Antibody binding to HEG1 and use of the antibody for detection and treatment of mesothelioma” (Kanagawa Prefectural Hospital Organization, priority 2016, dated 2024).

System: healthy tissues without any apparent lesion
Assay: Immunohistological staining of normal tissues
Design: species or system human
Description: AMeX-fixed cell precipitates or formalin-fixed tissues were paraffin-embedded to prepare thin sections. Each of the sections was fixed to a microscope slide, and subjected to deparaffinization and dehydration with xylene and ethanol, followed by activation of an antigen under different conditions. Each section was treated with 3% hydrogen peroxide for 5 minutes to deactivate endogenous peroxidase, and then washed with PBS and blocked with 0.5% casein for 10 minutes. After 100 μL of a solution containing a primary antibody was added to each section and treated at room temperature for 2 hours, the section was washed with PBS and allowed to develop color by using a Histofine Simple Stain MAX-PO (Multi) ([…] BIOSCIENCE INC.), Ventana ultraView DAB universal kit (Roche Diagnostics K. K.), or the EnVision+kits. Each section was stained with hematoxylin and then dehydrated, and encapsulated with Malinol (MUTO PURE CHEMICALS CO., LTD.) to observe under a microscope. The conditions for activation of an antigen were as follows: at 98° C. for 40 minutes for calretinin, mesothelin, and the SKM9-2 antigen; and at 95° C. for 64 minutes for cytokeratin 5/6 (CK5/6), podoplanin, and Wilms' tumor gene product 1 (WT-1). The following activation solutions were used: 10 mM Tris buffer (pH 9.0) containing 1 mM ethylenediamine tetraacetate (EDTA) for calretinin, CK5/6, and podoplanin; and 10 mM citrate buffer (pH 6.0) containing 0.1% TWEEN® 20 (polyethylene glycol sorbitan monolaurate, polyoxyethylenesorbitan monolaurate) for WT-1, mesothelin, and the SKM9-2 antigen. The following primary antibodies were used: a rabbit anti-calretinin polyclonal antibody (PAD:DC8) (Life Technologies Japan Ltd., Tokyo, Japan) for calretinin; a mouse anti-cytokeratin 5,6 monoclonal antibody (D5/16B4) ([…] BIOSCIENCE INC.) for CK5/6; a mouse anti-human mesothelin monoclonal antibody (5B2) (Leica Microsystems, Inc., Bannockburn, IL) for mesothelin; a mouse anti-podoplanin monoclonal antibody (D2-40) (Roche Diagnostics K. K.) for podoplanin; and a mouse anti-human WT-1 monoclonal antibody (6F-H2) (Roche Diagnostics K. K.) for WT-1.
In addition, the reactivity of the SKM9-2 antibody with normal tissues was examined by immunohistological staining. Immunostaining was performed by using the SKM9-2 antibody for healthy tissues without any apparent lesion.

B1: SKM9-2 antibody: mouse monoclonal IgG1 kappa antibody binding glycosylated HEG1; heavy chain SEQ ID NO: 2, light chain SEQ ID NO: 4 (antibody, listed as Mus musculus)
heavy: MGWSSIILFLVATTTGVHSQVQLQQPGAELVRPGASVKLSCKASGFSFTTYWITWVKQRPGQGLEWIGMIHPSDSETRLSQTFKDKATLTVDKSSNTAYMQFSSPTSEDSAVYYCVRDFDVWGAGTTVTVSSAKTTPPSVYPLAPGSAAQTNSMVTLGCLVKGYFPEPVTVTWNSGSLSSGVHTFPAVLQSDLYTLSSSVTVPSSTWPSETVTCNVAHPASSTKVDKKIVPRDCGCKPCICTVPEVSSVFIFPPKPKDVLTITLTPKVTCVVVDISKDDPEVQFSWFVDDVEVHTAQTQPREEQFNSTFRSVSELPIMHQDWLNGKEFKCRVNSAAFPAPIEKTISKTKGRPKAPQVYTIPPPKEQMAKDKVSLTCMITDFFPEDITVEWQWNGQPAENYKNTQPIMDTDGSYFVYSKLNVQKSNWEAGNTFTCSVLHEGLHNHHTEKSLSHSPGK
light: MKLPVRLLVLMFWIPASISDVLMTQTPLSLPVSLGDQASISCRSSQNIVHNNGNTYLGWYLQKPGQSPKLLIFKVSNRFSGVPDRFSGSGSGTDFTLKISRVEAEDLGVYYCFQGSHIPRTFGGGTRLEIKRADAAPTVSIFPPSSEQLTSGGASVVCFLNNFYPKDINVKWKIDGSERQNGVLNSWTDQDSKDSTYSMSSTLTLTKDEYERHNSYTCEATHKTSTSPIVKSFNRNEC
Bladder and ureter
  Number of positive cases/number of samples: 0/5
Blood vessel, *Some cells were positive
  Number of positive cases/number of samples: *5/8
Bronchus
  Number of positive cases/number of samples: 0/12
Cerebrum
  Number of positive cases/number of samples: 0/29
Duodenum
  Number of positive cases/number of samples: 0/2
Esophagus
  Number of positive cases/number of samples: 0/2
Gallbladder
  Number of positive cases/number of samples: 0/5
Kidney
  Number of positive cases/number of samples: 0/10
Large intestine
  Number of positive cases/number of samples: 0/6
Liver
  Number of positive cases/number of samples: 0/8
Lung
  Number of positive cases/number of samples: 0/23
Lymph node
  Number of positive cases/number of samples: 0/4
Mammary gland
  Number of positive cases/number of samples: 0/5
Muscle
  Number of positive cases/number of samples: 0/4
Myocardium
  Number of positive cases/number of samples: 0/12
Ovary
  Number of positive cases/number of samples: 0/4
Pancreas
  Number of positive cases/number of samples: 0/10
Pericardium
  Number of positive cases/number of samples: 1/1
Peritoneum
  Number of positive cases/number of samples: 0/2
Pleura
  Number of positive cases/number of samples: 0/5
Prostate
  Number of positive cases/number of samples: 0/10
Stomach
  Number of positive cases/number of samples: 0/3
Testicular serosa
  Number of positive cases/number of samples: 0/1
Testis
  Number of positive cases/number of samples: 1/5
Thyroid
  Number of positive cases/number of samples: 0/5
Normal mesothelial cells other than pericardial mesothelial cells
  Reactivity with normal tissue cells: Negative
Pericardial mesothelial cells
  Reactivity with normal tissue cells: positive image
Seminiferous tubule, one case for the testis
  Reactivity with normal tissue cells: positive
Vascular endothelial cells
  Reactivity with normal tissue cells: positive image
